Measured values taken from PMC10208982, “Structural basis of catalytic activation in human splicing” (Nature, 2023).

Columns and labels:
[1] = target: T1, PRP2 (DHX16) 137-1022;GPKOW (Homo sapiens;Homo sapiens, UniProt O60231;Q92917 137-1022;1-476, |); test: EMSA; complex assembled in vitro; 2 mM Mg2+; EMSA: 50 nM RNA, 0.1-8 uM protein, 20 mM HEPES-KOH pH 7.5, 50 mM KCl, 2 mM MgCl2, 0.1 mg/ml BSA, 5% glycerol, 30 min room temperature; 5% native gel in Tris-glycine; details: protein: recombinant;recombinant; tags: N-terminal Twin-StrepII;N-terminal Twin-StrepII; copies: 1;1; label: Cy5 at 3' end of S3; 18 bp duplex, 3' overhang 30 nt on S4
T1 sequence 1: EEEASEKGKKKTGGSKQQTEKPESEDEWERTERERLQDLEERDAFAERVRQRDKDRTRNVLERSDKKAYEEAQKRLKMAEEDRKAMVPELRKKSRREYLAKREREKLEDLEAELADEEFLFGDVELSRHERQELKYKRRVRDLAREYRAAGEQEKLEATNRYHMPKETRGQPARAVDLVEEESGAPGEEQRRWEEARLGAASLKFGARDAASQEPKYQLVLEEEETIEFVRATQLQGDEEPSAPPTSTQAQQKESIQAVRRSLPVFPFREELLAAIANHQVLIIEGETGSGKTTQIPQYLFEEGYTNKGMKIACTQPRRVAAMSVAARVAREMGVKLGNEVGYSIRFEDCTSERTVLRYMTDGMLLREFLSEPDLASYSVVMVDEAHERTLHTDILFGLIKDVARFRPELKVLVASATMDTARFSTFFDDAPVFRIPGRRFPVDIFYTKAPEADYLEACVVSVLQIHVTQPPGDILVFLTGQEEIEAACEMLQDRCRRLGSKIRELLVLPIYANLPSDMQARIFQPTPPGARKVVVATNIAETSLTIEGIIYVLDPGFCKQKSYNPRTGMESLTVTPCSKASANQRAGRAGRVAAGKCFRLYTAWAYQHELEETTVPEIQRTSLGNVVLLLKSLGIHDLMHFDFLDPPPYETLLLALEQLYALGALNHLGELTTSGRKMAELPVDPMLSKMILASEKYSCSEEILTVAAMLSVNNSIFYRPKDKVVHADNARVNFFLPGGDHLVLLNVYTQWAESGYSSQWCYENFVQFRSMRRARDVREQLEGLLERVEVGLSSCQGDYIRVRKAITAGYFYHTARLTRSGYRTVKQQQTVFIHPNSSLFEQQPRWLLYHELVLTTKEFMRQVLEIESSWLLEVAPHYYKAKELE
T1 sequence 2: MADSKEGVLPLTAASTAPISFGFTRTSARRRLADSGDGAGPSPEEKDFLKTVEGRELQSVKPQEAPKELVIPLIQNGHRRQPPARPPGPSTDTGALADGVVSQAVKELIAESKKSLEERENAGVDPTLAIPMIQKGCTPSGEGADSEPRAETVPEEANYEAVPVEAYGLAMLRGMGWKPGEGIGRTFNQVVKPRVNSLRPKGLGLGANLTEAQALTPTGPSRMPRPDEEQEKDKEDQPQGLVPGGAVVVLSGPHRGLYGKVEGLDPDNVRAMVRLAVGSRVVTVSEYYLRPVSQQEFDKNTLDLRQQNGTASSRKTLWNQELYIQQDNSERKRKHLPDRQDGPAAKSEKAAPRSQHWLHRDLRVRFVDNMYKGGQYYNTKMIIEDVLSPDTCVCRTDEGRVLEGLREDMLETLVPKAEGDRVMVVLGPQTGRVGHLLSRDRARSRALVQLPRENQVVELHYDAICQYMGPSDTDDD

PPIL4 = target: T2, PPIL4 (Homo sapiens, UniProt Q8WUA2 1-492); test: EMSA; no PRP2; 2 mM Mg2+; EMSA: 50 nM RNA, 0.1-8 uM protein, 20 mM HEPES-KOH pH 7.5, 50 mM KCl, 2 mM MgCl2, 0.1 mg/ml BSA, 5% glycerol, 30 min room temperature; 5% native gel in Tris-glycine; details: protein: recombinant; tags: untagged (Twin-StrepII removed by HRV-3C); label: Cy5 at 3' end of S3; 18 bp duplex, 3' overhang 30 nt on S4
T2 sequence: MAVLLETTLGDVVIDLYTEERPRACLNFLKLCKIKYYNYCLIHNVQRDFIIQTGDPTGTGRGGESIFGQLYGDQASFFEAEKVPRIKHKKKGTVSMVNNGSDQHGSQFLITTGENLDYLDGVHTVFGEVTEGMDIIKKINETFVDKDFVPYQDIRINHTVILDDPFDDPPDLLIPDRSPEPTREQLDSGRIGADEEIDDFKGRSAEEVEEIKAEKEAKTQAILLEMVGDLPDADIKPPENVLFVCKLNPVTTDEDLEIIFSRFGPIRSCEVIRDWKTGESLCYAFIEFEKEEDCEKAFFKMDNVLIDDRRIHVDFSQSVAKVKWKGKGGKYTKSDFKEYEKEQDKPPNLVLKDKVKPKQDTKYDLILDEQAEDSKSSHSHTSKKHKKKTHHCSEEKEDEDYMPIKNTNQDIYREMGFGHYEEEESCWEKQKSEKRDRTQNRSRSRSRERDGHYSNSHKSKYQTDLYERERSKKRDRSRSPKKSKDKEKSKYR

[2] = target: T3, PRP2 (DHX16) 137-1022;PPIL4 (Homo sapiens;Homo sapiens, UniProt O60231;Q8WUA2 137-1022;1-492, |); test: EMSA; purified co-expressed complex; 2 mM Mg2+; EMSA: 50 nM RNA, 0.1-8 uM protein, 20 mM HEPES-KOH pH 7.5, 50 mM KCl, 2 mM MgCl2, 0.1 mg/ml BSA, 5% glycerol, 30 min room temperature; 5% native gel in Tris-glycine; details: protein: recombinant;recombinant; tags: N-terminal Twin-StrepII;untagged (Twin-StrepII removed by HRV-3C); copies: 1;1; label: Cy5 at 3' end of S3; 18 bp duplex, 3' overhang 30 nt on S4
T3 sequence 1: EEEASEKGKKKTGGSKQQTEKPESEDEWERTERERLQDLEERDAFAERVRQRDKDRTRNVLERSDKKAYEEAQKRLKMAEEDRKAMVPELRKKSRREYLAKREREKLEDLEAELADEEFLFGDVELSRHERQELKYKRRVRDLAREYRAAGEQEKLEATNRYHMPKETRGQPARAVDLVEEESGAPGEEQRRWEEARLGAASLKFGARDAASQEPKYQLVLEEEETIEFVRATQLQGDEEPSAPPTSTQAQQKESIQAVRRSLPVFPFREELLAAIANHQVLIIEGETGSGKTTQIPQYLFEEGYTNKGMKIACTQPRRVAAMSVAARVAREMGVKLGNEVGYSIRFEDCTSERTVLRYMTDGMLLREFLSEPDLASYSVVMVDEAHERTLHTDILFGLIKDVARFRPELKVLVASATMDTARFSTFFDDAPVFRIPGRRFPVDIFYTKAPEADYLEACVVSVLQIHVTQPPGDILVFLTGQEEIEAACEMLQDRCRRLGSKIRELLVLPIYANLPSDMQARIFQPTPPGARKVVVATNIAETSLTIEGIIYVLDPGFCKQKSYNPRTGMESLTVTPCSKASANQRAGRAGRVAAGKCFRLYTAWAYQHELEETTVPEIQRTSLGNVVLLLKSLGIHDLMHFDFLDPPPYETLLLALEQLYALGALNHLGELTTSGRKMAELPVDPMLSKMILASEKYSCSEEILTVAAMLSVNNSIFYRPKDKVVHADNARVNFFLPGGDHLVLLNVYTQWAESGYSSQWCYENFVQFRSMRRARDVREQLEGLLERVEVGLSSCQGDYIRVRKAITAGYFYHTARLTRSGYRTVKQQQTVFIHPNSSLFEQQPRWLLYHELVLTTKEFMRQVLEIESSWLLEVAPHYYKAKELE
T3 sequence 2: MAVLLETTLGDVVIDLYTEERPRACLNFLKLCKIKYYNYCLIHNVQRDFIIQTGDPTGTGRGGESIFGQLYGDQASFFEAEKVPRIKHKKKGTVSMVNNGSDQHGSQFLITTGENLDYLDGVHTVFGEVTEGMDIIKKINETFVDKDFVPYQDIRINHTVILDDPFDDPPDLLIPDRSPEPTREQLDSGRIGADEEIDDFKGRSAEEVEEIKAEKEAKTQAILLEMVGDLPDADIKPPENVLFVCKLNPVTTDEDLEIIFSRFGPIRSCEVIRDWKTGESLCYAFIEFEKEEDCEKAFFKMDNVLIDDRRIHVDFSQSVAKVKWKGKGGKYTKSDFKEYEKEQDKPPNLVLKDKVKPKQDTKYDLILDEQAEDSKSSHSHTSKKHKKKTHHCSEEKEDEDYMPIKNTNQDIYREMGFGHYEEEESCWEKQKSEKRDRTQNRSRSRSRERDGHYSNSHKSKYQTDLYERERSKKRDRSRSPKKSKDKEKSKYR

GPKOW = target: T4, GPKOW (Homo sapiens, UniProt Q92917 1-476); test: EMSA; 2 mM Mg2+; EMSA: 50 nM RNA, 0.1-8 uM protein, 20 mM HEPES-KOH pH 7.5, 50 mM KCl, 2 mM MgCl2, 0.1 mg/ml BSA, 5% glycerol, 30 min room temperature; 5% native gel in Tris-glycine; details: protein: recombinant; tags: N-terminal Twin-StrepII; label: Cy5 at 3' end of S3; 18 bp duplex, 3' overhang 30 nt on S4
T4 sequence: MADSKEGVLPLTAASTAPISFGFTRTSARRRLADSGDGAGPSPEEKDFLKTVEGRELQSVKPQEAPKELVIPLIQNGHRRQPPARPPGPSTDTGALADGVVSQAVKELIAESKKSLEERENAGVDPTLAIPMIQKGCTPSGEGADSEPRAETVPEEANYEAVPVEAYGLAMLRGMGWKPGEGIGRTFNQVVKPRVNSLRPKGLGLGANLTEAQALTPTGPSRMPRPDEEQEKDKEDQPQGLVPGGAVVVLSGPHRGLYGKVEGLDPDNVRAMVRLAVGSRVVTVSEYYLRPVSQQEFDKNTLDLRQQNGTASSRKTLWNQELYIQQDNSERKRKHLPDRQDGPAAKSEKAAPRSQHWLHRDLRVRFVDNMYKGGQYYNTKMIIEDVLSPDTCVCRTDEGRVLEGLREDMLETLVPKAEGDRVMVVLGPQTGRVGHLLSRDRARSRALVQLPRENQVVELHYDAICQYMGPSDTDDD

PRP2 (DHX16) 137-1022 = target: T5, PRP2 (DHX16) 137-1022 (Homo sapiens, UniProt O60231 137-1022); test: as above; details: protein: recombinant; tags: N-terminal Twin-StrepII; label: Cy5 at 3' end of S3; 18 bp duplex, 3' overhang 30 nt on S4
T5 sequence: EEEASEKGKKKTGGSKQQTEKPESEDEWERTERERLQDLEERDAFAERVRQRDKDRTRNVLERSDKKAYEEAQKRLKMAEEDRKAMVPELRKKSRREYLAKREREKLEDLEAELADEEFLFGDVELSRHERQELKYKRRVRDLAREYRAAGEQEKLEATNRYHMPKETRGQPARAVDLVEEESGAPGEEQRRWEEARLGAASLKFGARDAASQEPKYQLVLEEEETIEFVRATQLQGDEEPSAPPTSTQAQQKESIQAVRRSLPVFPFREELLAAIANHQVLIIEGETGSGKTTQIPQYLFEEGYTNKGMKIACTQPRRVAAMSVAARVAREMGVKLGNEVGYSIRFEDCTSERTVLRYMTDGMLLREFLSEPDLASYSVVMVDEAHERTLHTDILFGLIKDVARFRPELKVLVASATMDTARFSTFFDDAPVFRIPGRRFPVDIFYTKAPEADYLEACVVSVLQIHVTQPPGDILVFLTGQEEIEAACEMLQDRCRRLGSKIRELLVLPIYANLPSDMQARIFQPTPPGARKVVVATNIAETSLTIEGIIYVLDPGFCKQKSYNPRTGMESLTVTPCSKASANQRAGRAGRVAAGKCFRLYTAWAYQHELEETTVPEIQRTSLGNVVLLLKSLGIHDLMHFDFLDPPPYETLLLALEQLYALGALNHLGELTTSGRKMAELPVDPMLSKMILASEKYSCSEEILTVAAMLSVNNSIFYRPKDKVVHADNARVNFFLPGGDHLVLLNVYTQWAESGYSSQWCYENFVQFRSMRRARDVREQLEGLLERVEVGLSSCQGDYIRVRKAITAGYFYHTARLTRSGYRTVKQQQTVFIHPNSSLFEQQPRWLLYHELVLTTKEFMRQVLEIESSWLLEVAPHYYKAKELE

Measured: binding result

B1: Cy5 RNA duplex with 30-nt 3' overhang (dsRNA)
RNA 1: GCGCCUACGGAGCUGGUGGCGUAGGCGCAAAAAAAAAAAAAAAAAAAA
RNA 2: CACCAGCUCCGUAGGCGC
binds: all assays above
